Measurements published in patent publication US10578620B2, “Methods for detecting molecules in a sample” (The Francis Crick Institute Limited, priority 2013, dated 2020).

Test system: pT308 (Akt phosphorylation)
Test: Two-site TSA-FRET for pT308 in FFPE human breast tumour, CIP specificity control
Method: TSA-FRET assay for quantification of pT308 was performed on 4-μm sections of two identical FFPE-fixed breast cancer tissue samples.
Following de-waxing and rehydration, sections were subjected to heat antigen retrieval by microwaving in TRIS-EDTA (pH 9.0) buffer, for 10 minutes at 800 W. Sections were then incubated in freshly prepared sodium borohydrate (1 mg/ml in PBS) buffer for 10 min at RT, followed by blocking with 1% BSA/PBS. Tissues sections were incubated with peroxidase suppressor (Thermo Scientific Pierce) for 15 min.
For the two-site TSAFRET assay, the first slide was incubated with mouse anti-panAkt (1:100), and the second slide with mouse anti-panAkt (1:100) and rabbit anti-pT308 (1:200) primary antibodies, for 16 hours at 4° C. The first slide was further immunolabeled with ORG488-conjugated anti-mouse Fab fragment secondary antibody (20 μg/ml). The second slide was immunolabeled with ORG488-conjugated anti-mouse Fab fragment (20 μg/ml) and HRP-conjugated anti-rabbit Fab fragment secondary antibody (10 μg/ml), which was detected by using Alexa-594-TSA assay. […]
The donor lifetimes of ORG488 were determined from at least 10 ROIs of the tumours, each performed in triplicate unless otherwise indicated. The FRET efficiency was calculated as described above (FIG. 4(a)-(c)).

B1: calf intestinal alkaline phosphatase (protein, UniProt P19111 20-506, looked up)
Intestinal-type alkaline …: LVPVEEEDPAFWNRQAAQALDVAKKLQPIQTAAKNVILFLGDGMGVPTVTATRILKGQMNGKLGPETPLAMDQFPYVALSKTYNVDRQVPDSAGTATAYLCGVKGNYRTIGVSAAARYNQCKTTRGNEVTSVMNRAKKAGKSVGVVTTTRVQHASPAGAYAHTVNRNWYSDADLPADAQMNGCQDIAAQLVNNMDIDVILGGGRKYMFPVGTPDPEYPDDASVNGVRKRKQNLVQAWQAKHQGAQYVWNRTALLQAADDSSVTHLMGLFEPADMKYNVQQDHTKDPTLQEMTEVALRVVSRNPRGFYLFVEGGRIDHGHHDDKAYMALTEAGMFDNAIAKANELTSELDTLILVTADHSHVFSFGGYTLRGTSIFGLAPSKALDSKSYTSILYGNGPGYALGGGSRPDVNDSTSEDPSYQQQAAVPQASETHGGEDVAVFARGPQAHLVHGVEEETFVAHIMAFAGCVEPYTDCNLPAPTTATSIPD
notes: phosphatase used as control to verify FRET signal is due to Akt phosphorylation
In the case of B1, the “FRET efficiency (Ef) of panAkt+pT308 in CIP-treated tumour samples” value (CIP 10 units/slide 30 min, untreated Ef=6.0) is reported as 1.5% and the “change of FRET efficiency of the panAkt+pT308 signal in the CIP-treated condition” value (FIG. 4(c), p<0.0001) is reported as “reduction”.
